B1: NI-205.68G5 (antibody, human IgG1, V domains shown)
VH: QVQLVESGGGVVQPGRSLRLSCAASGFTFSSYGMHWVRQAPGKGLEWVAIIYYDSSQRYYADSVKGRFTISRDNSKNALYLQMNSLRAEDTALYYCARDLPFHYHRSASFAPSDTWGQGTLVTVSS
VL: EIVLTQSPGTLSLSPGERATLSCRASQAVTNNYLAWYQQKPGQAPRLLVYAASSRATGIPDRFYGSGSGADFTLTISRLEPEDFAVYYCQQYGTSPITFGQGTRLEIK
B2: NI-205.8F8 (antibody, human IgG1, V domains shown)
VH: EVQLLESGGGLVQPGGSLRLSCAASGYTFSYYAMSWVRQAPGKGLEWVSTIGDSGSTTHYADSVKGRFTISRDNSKSTLYLQMNSLRAEDTAVYYCAKGLGPVAAIGDYWGQGTLVTVSS
VL: QSVLTQPPSASGTPGQRVTISCSGSSSNIGSNNVYWYQQLPGTAPKLLVYRNNQRPSGVPDRVSGSKSGSSASLAISGLRSEDEADYYCAAWDDSLRGYVFGTGTKVTVL
B3: NI-205.14H5 (antibody, human IgG1, V domains shown)
VH: EVQLLESGGGLVQPGGSLRLSCAASGFTFRNYAMAWVRQAPGKGLEWVSAIPARGDKTYYADSVRGRFTISRDISKSALYLQMNSLRVEDTAVYYCAKAHHLYNKNFDYWGQGTLVTVSS
VL: EIVLTQSPGTLSLSPGETVTLSCRASQSVSSSNLAWYQQKPGQAPRLLIYGASSRATGIPDRFSGRGSGTDFTLTISRLEPEDFAVYYCQHYGTFGQGTKVDIK
B4: NI-205.21G1 (antibody, human IgG1, V domains shown)
VH: QVQLVESGGGVVQPGMSLRLSCAASGFSFSSHGMHWVRQTPGKGLEWLAVISYDASNKSYADSVKGRFTISRDNSKKTLYLQMDSLRVEDTALYYCANAFSSSASGGYWGQGTLVTVSS
VL: DVVMTQSPLSLPVTLGQPASISCRSSQSLVHSDGVTYLNWFQQRPGQSPRRLIYKVSNRDSGVPDRFSGSGSGTDFTLEISRVEAEDVGIYYCMQGTHWPPWTFGQGTKVEIK
B5: NI-205.58E11 (antibody, human IgG1, V domains shown)
VH: EVQLLESGGGLVQPGGSLRLSCAASGFTFSSYSMSWVRQAPGKGLEWVATVGYGGTIYYADSVKGRFTISRDNSKNTLYLEMNSLRAEATAVYYCAKANYGGNRFGLDVWGQGTTVTVSS
VL: QSALTQPPSASGSPGQSVTISCTGTSSDVGGYNYVSWYQHQPGKAPKLMIYEVSKRPSGVPDRFSGSKSGNTASLTVSGLQAEDEADYYCSSYAGSNNLGVFGTGTEVTVL
B6: NI-205.36D5 (antibody, human IgG1, V domains shown)
VH: QVQLVESGGGVVQPGRSLRLSCAASRFTFSSYGMHWVRQAPGKGLEWVALIYYDATQKYYADSVKGRFTISRDNSKNALYLQMTSLRADDTAVYYCARDLPYHYHRSASFAPADTWGQGTLVTVSS
VL: EIVLTQSPGTLSLSPGERATLSCRASQTISNNYLAWYQQKPGQAPRLLVYAASSRATGIPDRFYGSGSGADFTLTISRLEPEDFVVYYCQQYGSSPITFGQGTRLEIK

What follows are binders tested against synthetic peptide of residues 390-414 of TDP-43 with phosphorylation at residues 409/410 (human) (assay: direct ELISA, coated antigen).
Sequence of synthetic peptide of residues 390-414 of TDP-43 with phosphorylation at residues 409/410 (human) (peptide, as listed by the source): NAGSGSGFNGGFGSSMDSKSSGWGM
Binder B1 has an EC50 of 16.9 nM. B2 gave an EC50 of 5.1 nM. B3 gave an EC50 of 0.9 nM. For B4, the EC50 was 49.5 nM. Binder B5 has an EC50 of 6.9 nM.

What follows are binders tested against synthetic peptide of residues 390-414 of TDP-43 with phosphorylation at residues 409/410 (human) (assay: direct ELISA, coated antigen; direct ELISA, coated synthetic phospho-409/410 peptide 390-414 (3.3 ug/ml)).
B6 was tested, and the EC50 was 4.3 nM.
